Assay results reported in patent publication US20030166537A1, “Use of GDNF for treating corneal defects” (Biopharm Gesellschaft Zur Biotechnologischen Entwicklung …, priority 1999, published 2003).

Key:
[1] = test system: FAK, Pyk2, cRaf, MEK1, Erk 1 and 2, Elk, RSK; assay: western blot of phosphorylated intracellular signaling proteins in corneal epithelial cells; format: cell-based, human
Description: In order to investigate which protein kinase cascades are activated by GDNF and artemin, corneal epithelial cells from the cell line were seeded at a density of 5×10^5 cells/75 cm^2 and cultured in SHEM with 10% FBS for one day. Cultures were then washed with PBS and incubated in serum-free SHEM without additives or with GDNF (200 ng/ml) or with artemin (250 ng) for 10 to 40 minutes. After washing with PBS, cultured cells were solubilized in lysis buffer containing 50 mM Tris2Cl (pH8.0), 150 mM NaCl, 0.02% sodium azide, 100 μg/ml phenylmethylsulfonyl fluoride, 1 mM Na3VO4, 1% Triton X-100 and a mixture of several protease inhibitors [complete™, Boehringer Mannheim (1 tablet/30 ml buffer)]. 80 μg total protein per lane was fractionated by NuPAGE 10% SDS-MOPS-Bis-Tris gel or NuPAGE 3-8% Tris-acetate gel (all from NOVEX, San Diego, Calif.) and blotted onto a nitrocellulose membrane. Phosphorylated proteins were detected with phospho-specific antibodies and visualized with the ECL western blot analysis system (Amersham). Antibodies against phospho-Raf(ser259), phospho-MEK1/2(ser217/221), phospho-MAPK (Erk1/2) (thr202/tyr204), phospho-p90 ribosomal S6 kinase (RSK) (ser381) and phospho-Elk-1(ser383) were obtained from New England Biolabs (Beverly, Mass.). Antibody against phospho-FAK (tyr397/tyr407/tyr576/tyr577/tyr861/tyr925) and phospho-Pyk2 (tyr402/tyr579/tyr/580/tyr881) were purchased from Biosource (Camarillo, Calif., USA). A monoclonal antibody against phospho-tyrosine came from Sigma (Deisenhofen, Germany).

[2] = test system: ERK1, ERK2, JNK1 and JNK2; assay: western blot of phosphorylated MAP kinases in cultured human corneal epithelium; format: cell-based; settings: human epithelial cells
Description: (§1) In order to evaluate the effect of GDNF and other neurotrophic factors on the activation of signal transduction pathways in cultured corneal epithelial and stromal keratocytes, western blots were performed for detecting an accumulation of phosphorylated MAP kinases ERK and JNK in the presence of GDNF, NGF and BDNF. Human stromal keratocytes were cultured in RPMI 1640 medium containing L-glutamine (glutaMAX) or DMEM with 10% FBS for one day and starved in serum-free medium for another day. Cultures were then washed with PBS and incubated in serum-free DMEM without additives or with recombinant human GDNF (200 ng/ml), recombinant human NGF (200 ng/ml) and recombinant human BDNF (200 ng/ml) (all obtained from R & D Systems, Mineapolis, Minn., USA) for 30 min. Some cultures were incubated with an inhibitor of MAP kinases (PD 98059, Torcris Cookson Ballwin, Mo., USA) at 100 μM for 1 h prior to exposure to neurotrophines. After washing with PBS, culture cells were solubilized in lysis buffer containing 50 mM Tris-Cl (pH 8.0), 150 mM NaCl, 0.02% sodium azide, 100 μg/ml PMSF, 1% Triton X-100 and a mixture of several protein inhibitors (Complete®, Boehringer Mannheim) (one tablet/50 ml buffer). 50 μg total protein per lane was fractionated by a 10% STS-MOPS NUPAGE Bis-tris gel (NOVEX, San Diego, Calif., USA) and blotted onto nitrocellulose membrane. Membranes were stained with diluted polyclonal antibodies against ERK1, ERK2, JNK1 and JNK2 (Santa Cruz Biotechnology, Santa Cruz, Calif., USA). Also a polyclonal antibody was used which recognizes the […] form of either ERK1 and ERK2 which was raised against the catalytic core of the phosphorylated threonine residue 183 and tyrosine residue 185 of mammalian ERK2. Similarily, a polyclonal antibody recognizing the phosphorylated form of JNK1 and JNK2 was used (both from Promega). In the last step the membranes were visualized with the ECL western blot analysis system (Amersham).

corneal epithelial cells = assay: in vitro wound healing model with herbimycin A; format: cell-based; settings: 250 ng/ml GDNF alone; 18 hours
Description: (§2) For in vitro wound healing assays primary corneal epithelial cells and cells from the corneal epithelial cell line were seeded at a density of 5×10^5 onto 60 mm plastic dishes with 2 mm grid (Sarstedt, Numbrecht, Germany) and cultured for 2 days until subconfluency. For experiments with artemin primary cultured rabbit corneal epithelial cells were used. These cells had been isolated with Dispase (1,2 U/ml) and trypsin/EDTA. Rabbit cells had been cultured in medium 500 with additives (Cascade Biologies).
The cell layer was injured under the microscope by inducing several parallel scratches with a soft plastic cell scrubber (Falcon, Becton and Dickinson, Heidelberg, Germany). The tip of the scrubber was cut and measured about 1 mm and consequently the width of the scratch in the cell layer was also about 1 mm. Selected areas in the dishes were marked with a very fine marker pen and consecutive images were taken at different time points at 5×magnification under an inverted phase contrast microscope (Axiovert 25, Zeiss, Jena, Germany) equipped with a video camera. […] For each condition four representative areas were evaluated within three dishes. […] 18 hours later the mean diameter of the same scratch was calculated again and expressed in percent of the diameter at the beginning of the experiment. […]

[3] = test system: ERK1, ERK2, JNK1 and JNK2; assay: western blot of phosphorylated MAP kinases in cultured human corneal stromal keratocytes; format: cell-based
Description: as §1

[4] = test system: primary human corneal epithelial cells; assay: in vitro wound healing assay (scratch wound), primary cells; format: cell-based; settings: 250 ng/ml; 18 h; control less than 10%
Description: as §2
The cell layer was injured under the microscope by inducing several parallel scratches with a soft plastic cell scrubber (Falcon, Becton and Dickinson, Heidelberg, Germany). The tip of the scrubber was cut and measured about 1 mm and consequently the width of the scratch in the cell layer was also about 1 mm. Selected areas in the dishes were marked with a very fine marker pen and consecutive images were taken at different time points at 5×magnification under an inverted phase contrast microscope (Axiovert 25, Zeiss, Jena, Germany) equipped with a video camera. Following the experimental injury dishes were incubated in SHEM medium either containing no growth factors (control) or containing either GDNF (250 ng/ml) (recombinant human GDNF expressed in E. coli), NGF (250 ng/ml) (Boehringer Mannheim, Germany) or EGF ([…]). For experiments investigating artemin cells were cultured in medium 500 without additives and 250 ng artemin was added. For each condition four representative areas were evaluated within three dishes. The mean diameter of the scratch in each representative area was set as 100% at the beginning of the experiment. 18 hours later the mean diameter of the same scratch was calculated again and expressed in percent of the diameter at the beginning of the experiment.

[5] = GDNF 200 ng/ml, within 10 minutes
[6] = GDNF 200 ng/ml, within 40 minutes

B1: GDNF: recombinant human GDNF having the amino acid sequence of human wild-type GDNF (GenBank L19063, L15306) (protein)
chain: SPDKQMAVLPRRERNRQAAAANPENSRGKGRRGQRGKNRGCVLTAIHLNVTDLGLGYETKEELIFRYCSGSCDAAETTYDKILKNLSRNRRLVSDKVGQACCRPIAFDDDLSFLDDNLVYHILRKHSAKRCGCI
- serine phosphorylation of Elk [1, 5]: significantly induced
- serine phosphorylation of MEK1 [1, 5]: significantly induced
- serine phosphorylation of cRaf [1, 5]: significantly induced
- tyrosine/threonine phosphorylation of Erk 1 and 2 [1, 5]: significantly induced
- phosphorylation of Pyk2 [1, 6]: phosphorylated
- tyrosine phosphorylation of FAK [1, 6]: gradually increased
- phosphorylation of RSK ([1]; in response to GDNF): not detectable
- phosphorylation of ERK1 and ERK2 ([2]; 200 ng/ml factor vs serum-free control medium): induced
- phosphorylation of JNK1/2 ([2]; vs control): not induced
- wound gap filled with cells (corneal epithelial cells): 37.9±8.1%
- activated JNK2 [3]: not induced
- phosphorylation of ERK1 and ERK2 ([3]; 200 ng/ml factor vs control): induced ERK1 to a limited extent
- phosphorylation of JNK1 ([3]; vs serum-free medium): weakly induced
- gap in the cell monolayer filled [4]: 16.5±6%
